According to patent US20210284706A1 (published 2021):

Target: OMCP
Assay: method not stated

B1: human NKG2D (Example 21) (receptor)
chain: NSLFNQEVQIPLTESYCGPCPKNWICYKNNCYQFFDESKNWYESQASCMSQNASLLKVYSKEDQDLLKLVKSYHWMGLVHIPTNGSWQWEDGSILSPNLLTIIEMQKGDCALYASSFKGYIENCSTPNTYICMQRTV
Q: Which Kd does the source give for B1 here?
A: 100 pM
